From article PMC9120461, “Structural insights into the mechanism of pancreatic KATP channel regulation by nucleotides” (Nature Communications, 2022)

Key:
[1] = target: the molecule itself; experiment: cryo-EM structure; purified H175K_(cryo-EM) fusion protein (13.5 uM octamer) in TBS (20 mM Tris-HCl pH 7.5, 150 mM NaCl) with 0.1% digitonin, with 5 mM MgCl2, 0.5 mM ADP, 0.5 mM NN414 and 10 uM PI(4,5)P2diC8; closed and pre-open states resolved in the same sample
[2] = target: T1, SUR1 from Mesocricetus auratus (maSUR1), as the SUR1 part of H175K_(cryo-EM) (Mesocricetus auratus, UniProt A0A1U7R319 1-1582); experiment: as above; conditions: both partners purified
T1 construct: SUR1 from Mesocricetus auratus (maSUR1); In the assay it stood on one chain with Kir6.2 H175K: its C terminus is joined to the 41-residue linker and the Prescission site; also called SUR1 subunit; source: purified in digitonin (Streptactin 4FF resin, Superose 6 increase)
T1 sequence (A0A1U7R319 entry or part of it H175K H175K): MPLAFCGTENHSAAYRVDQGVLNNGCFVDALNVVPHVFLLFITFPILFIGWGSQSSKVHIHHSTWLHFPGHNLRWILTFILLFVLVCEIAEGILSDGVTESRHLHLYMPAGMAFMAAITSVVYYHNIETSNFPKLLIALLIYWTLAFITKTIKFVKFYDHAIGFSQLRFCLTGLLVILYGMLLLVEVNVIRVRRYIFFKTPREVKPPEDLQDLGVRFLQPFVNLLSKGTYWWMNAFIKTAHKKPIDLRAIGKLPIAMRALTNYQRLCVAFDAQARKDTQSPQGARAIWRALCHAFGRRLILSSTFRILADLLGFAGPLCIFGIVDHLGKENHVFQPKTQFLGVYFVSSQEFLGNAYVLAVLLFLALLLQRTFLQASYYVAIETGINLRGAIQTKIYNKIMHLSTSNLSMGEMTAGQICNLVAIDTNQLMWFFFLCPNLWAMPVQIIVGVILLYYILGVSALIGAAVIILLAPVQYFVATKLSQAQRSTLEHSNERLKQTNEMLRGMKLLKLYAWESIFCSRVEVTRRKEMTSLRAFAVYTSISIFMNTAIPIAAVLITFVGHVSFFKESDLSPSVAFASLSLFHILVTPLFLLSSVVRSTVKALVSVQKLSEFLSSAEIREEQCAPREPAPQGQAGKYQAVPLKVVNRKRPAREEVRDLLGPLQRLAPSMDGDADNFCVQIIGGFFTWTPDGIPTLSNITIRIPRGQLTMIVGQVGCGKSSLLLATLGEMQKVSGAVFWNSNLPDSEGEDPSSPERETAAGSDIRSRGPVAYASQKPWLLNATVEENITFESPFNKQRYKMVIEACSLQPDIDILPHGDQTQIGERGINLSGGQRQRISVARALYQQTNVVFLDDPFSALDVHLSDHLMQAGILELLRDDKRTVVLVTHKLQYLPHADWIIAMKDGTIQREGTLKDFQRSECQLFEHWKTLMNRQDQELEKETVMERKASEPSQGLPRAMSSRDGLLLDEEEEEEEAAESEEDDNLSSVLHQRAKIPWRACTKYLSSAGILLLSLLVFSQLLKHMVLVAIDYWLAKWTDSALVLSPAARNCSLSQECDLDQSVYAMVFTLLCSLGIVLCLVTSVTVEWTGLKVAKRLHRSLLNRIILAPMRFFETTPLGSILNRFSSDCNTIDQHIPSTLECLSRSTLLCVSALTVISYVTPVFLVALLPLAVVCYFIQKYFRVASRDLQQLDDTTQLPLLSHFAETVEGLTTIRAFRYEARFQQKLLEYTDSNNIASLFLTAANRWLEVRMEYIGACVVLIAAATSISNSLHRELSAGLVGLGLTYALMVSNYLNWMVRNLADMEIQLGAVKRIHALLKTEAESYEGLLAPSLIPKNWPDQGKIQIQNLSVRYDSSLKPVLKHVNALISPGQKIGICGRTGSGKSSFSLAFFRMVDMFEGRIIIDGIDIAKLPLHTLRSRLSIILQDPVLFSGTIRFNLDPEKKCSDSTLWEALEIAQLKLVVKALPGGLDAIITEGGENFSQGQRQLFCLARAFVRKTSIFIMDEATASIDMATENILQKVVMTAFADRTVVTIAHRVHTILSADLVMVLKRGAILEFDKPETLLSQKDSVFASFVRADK

binding result [2]: binds
B1: Kir6.2 from Mus musculus (mmKir6.2) H175K mutant, as the Kir6.2 part of H175K_(cryo-EM) (natural protein, UniProt Q61743 2-390, looked up)
chain: LSRKGIIPEEYVLTRLAEDPAEPRYRTRERRARFVSKKGNCNVAHKNIREQGRFLQDVFTTLVDLKWPHTLLIFTMSFLCSWLLFAMVWWLIAFAHGDLAPGEGTNVPCVTSIHSFSSAFLFSIEVQVTIGFGGRMVTEECPLAILILIVQNIVGLMINAIMLGCIFMKTAQAKRRAETLIFSKHAVITLRHGRLCFMLRVGDLRKSMIISATIHMQVVRKTTSPEGEVVPLHQVDIPMENGVGGNGIFLVAPLIIYHVIDSNSPLYDLAPSDLHHHQDLEIIVILEGVVETTGITTQARTSYLADEILWGQRFVPIVAEEDGRYSVDYSKFGNTIKVPTPLCTARQLDEDRSLLDALTLASSRGPLRKRSVAVAKAKPKFSISPDSLS
notes: Kir6.2 from Mus musculus (mmKir6.2), first Met removed, H175K mutant; In the assay it stood on one chain with SUR1: its N terminus is joined to the Prescission site and the 41-residue linker after SUR1; source: purified in digitonin (Streptactin 4FF resin, Superose 6 increase)
binding result [1]: binds
